The record followed here is US20250027068.

B1: PRT-311 (protein)
chain: MQITSVWTKGVTPLTPEQFRENNEDVIHAPYLAHQGWYDITKAFDGKDNLLCGAATAGNMLHWWFDQNKTEIEAYLSKHPEKQKIIFNNQEWFDLKAAIDTKDSQTNSQLFNYFRDKAFPNLSARQLGVMPDLVLDMFINGYYLNVPKTQSTDVNRPYQDKDKRGGIFDAVFTRGDQTTLLTARHDLKNKGLNDISTIIKQELTEGRALALSHTYANVSISHVINLWGADFNAEGNLEAIYVTDSDANASIGMKKYAVGINAHGHVAISAKKIEGENIGAQVLGLFTLSSGKDIWQKLS
B2: PRT-312 (protein)
chain: MQITSVWTKGVTPLTPEQFRENNEDVIHAPYLAHQGWYDITKAFDGKDNLLCGAATAGNMLHWWFDQNKTEIEAYLSKHPEKQKIIFGNQELFDLKAAIDTKDSQTNSQLFNYFRDKAFPNLSARQLGVMPDLVLDMFINGYYLNVGKTQSTDVNRPYQDKDKRGGIFDAVFTRGDQTTLLTARHDLKNKGLNDISTIIKQELTEGRALALSHTYANVSISHVINLWGADFNAEGNLEAIYVTDSDANPSIGMKKYFVGRNAHGHVAISAKKIEGENIGAQVLGLFTLSSGKDIWQKLS
B3: PRT-319 (protein)
chain: MTITSVWTKGVTPPTPEDFRENNEDVLHAPYVANQGWYDITKTFDGKDNLLCGAATAGNMLHWWFDQNKEEIERYLKKHPEKQKIIFNNQELFDVKAAIDTKDSQTNSKLFDYFRDKAFPNLSARQLGVMPDLVLDMFINGYYLNLGKTQSTDVNRPYQDKDKRGGIFDAVFTRGDQTTLLTARHDLKNKGLNEISDLIKQELTEGKALALSHTYANVRINHVINLWGADFDAEGNLIAIYVTDSDANASIGMKKYFVGRNANGKVAISAKKIEGDNIGAQVLGLFTLSLGQDIWQKLS
B4: PRT-327 (protein)
chain: MTITSVWTKGVTPPTPEDFRENNEDVLHAPYVANQGWYDITKTFDGKDNLLCGAATAGNMLHWWFDQNKEEIERYLKKHPEKQKIIFNNQELFDVKAAIDTKDSQTNSKLFDYFRDKAFPNLSARQLGVMPDLVLDMFINGYYLNLGKTQSTDVNRPYQDKDKRGGIFDAVFTRGDQTTLLTARHDLKNKGLNEISDLIKQELTEGKALALSHTYANVRINHVINLWGADFDAEGELIAIYVTDSDANPSIGMKKYFVGRNANGKVAISAKKIEGDNIGAQVLGLFTLSTGQDIWQKLS
B5: PRT-320 (protein)
chain: MTITSVWTKGVTPPTPEDFRENNEDVLHAPYVANQGWYDITKTFDGKDNLLCGAATAGNMLHWWFDQNKEEIERYLKKHPEKQKIIFGNQELFDVKAAIDTKDSQTNSKLFDYFRDKAFPNLSARQLGVMPDLVLDMFINGYYLNLGKTQSTDVNRPYQDKDKRGGIFDAVFTRGDQTTLLTARHDLKNKGLNEISDLIKQELTEGKALALSHTYANVRINHVINLWGADFDAEGNLIAIYVTDSDANASIGMKKYFVGRNANGKVAISAKKIEGDNIGAQVLGLFTLSTGQDQWQKLS
B6: PRT-295 (protein)
chain: MVTSVWTKGVTPPADFTQGEDVFHAPYDANQGWYDITKTFNGKDDLLCGAATAGNMLHWWFDQNKEYIEAYLKKHPEKQKIMFGDQELLDVRKAINTKGSQKNSELFNYFRDKAFPNLSARRLGVMPDLVLDMFINGYYLNVTKTQTTDVNRTYQEKDKRGGIFDAVFTRGDQSKLLTSRHDFKEKGLKEISDLIKQELTEGKALGLSHTYANVRISHVINLWGADFDSDGNLKAIYVTDSDSNASIGMKKYFVGVNSSGKVAISAKEIKEDNIGAQVLGLFTLSTGQDIWNQTN
B7: PRT-296 (protein)
chain: MVTSVWTKGVTPPADFTQGEDVFHAPYVANQGWYDITKEFNGKDDLLCGAATAGNMLHWWFDQNKEYIEAYLKKHPEKQKIMFGDQELLDVRKAINTKGSQKNSELFNYFRDKAFPNLSARRLGVMPDLVLDMFINGYYLNVTKTQTTDVNRTYQEKDKRGGIFDAVFTRGDQSKLLTSRHDFKEKGLKEISDLIKQELTEGKALGLSHTYANVRIGHVINLWGADFDSDGNLKAIYVTDSDSNASIGMKKYGVGVNSAGKVAISAKEIKEDNIGAQVLGLFTLSTGQDIWNQTN
B8: PRT-303 (protein)
chain: MVTSVWTKGVTPPTDFIKGEDVFHAPYDAGQGWYDITKTFNGKDDLLCGAATAGNMLHWWFDQNKEYIEAYLKKHPEKQKIMFGDQELLDVRKAINTKGSQKNSELFNYFRDKAFPNLSARRLGVMPDLVLDMFINGYYLNVTKTQTTDVNRTYQEKDKRGGIFDAVFTRGDQSKLLTSRHDFKEKGLKEISDLIKQELTEGKALGLSHTYANVRISHVINLWGADFDSDGNLKAIYVTDSDSNASIGMKKYGVGVNSAGKVAISAKEIKEDNIGAQVLGLFTLSTGQDIWNQTN
B9: PRT-304 (protein)
chain: MVTSVWTKGVTPPTDFIKGEDVFHAPYDAGQGWYDITKTFNGKDDLLCGAATAGNMLHWWFDQNKEYIEAYLKKHPEKQKIMFGDQELLDVRKAINTKGSQKNSELFNYFRDKAFPNLSARRLGVMPDLVLDMFINGYYLNVTKTQTTDVNRTYQEKDKRGGIFDAVFTRGDQSKLLTSRHDFKEKGLKEISDLIKQELTEGKALGLSHTYANVRISHVINLWGADFDSDGNLKAIYVTDSDSNASIGMKKYFVGVNSSGKVAISAKEIKEDNIGAQVLGLFTLSTGQDIWNQTN

This data set has as its target pooled human IgG (human IgG1,2,3 and 4).
As for B1, the Enzyme Activity Endpoint Assay (purified): Fab'2 worked out at 261 ng/µL, the Enzyme Activity Endpoint Assay (purified): Fc was determined as 295 ng/µL, the Enzyme Activity Endpoint Assay (purified): IgG turned out to be 109 ng/µL and the Enzyme Activity Endpoint Assay (purified): scIgG came to 496 ng/µL.

In turn, B2 registered an Enzyme Activity Endpoint Assay (purified): Fab'2 of 703 ng/µL, an Enzyme Activity Endpoint Assay (purified): Fc of 330 ng/µL, an Enzyme Activity Endpoint Assay (purified): IgG of 53 ng/µL and an Enzyme Activity Endpoint Assay (purified): scIgG of 54 ng/µL.

Take B3: the Enzyme Activity Endpoint Assay (purified): Fab'2 is 670 ng/µL, the Enzyme Activity Endpoint Assay (purified): Fc stood at 372 ng/µL, the Enzyme Activity Endpoint Assay (purified): IgG was 32 ng/µL and the Enzyme Activity Endpoint Assay (purified): scIgG was 0 ng/µL.

As for B4, the Enzyme Activity Endpoint Assay (purified): Fab'2 was 460 ng/µL, the Enzyme Activity Endpoint Assay (purified): Fc is 338 ng/µL, the Enzyme Activity Endpoint Assay (purified): IgG came to 472 ng/µL and the Enzyme Activity Endpoint Assay (purified): scIgG came out at 0 ng/µL.

In the case of B5, the Enzyme Activity Endpoint Assay (purified): Fab'2 came out at 778 ng/µL, the Enzyme Activity Endpoint Assay (purified): Fc came out at 339 ng/µL, the Enzyme Activity Endpoint Assay (purified): IgG is 53 ng/µL and the Enzyme Activity Endpoint Assay (purified): scIgG turned out to be 0 ng/µL.

B6: the Enzyme Activity Endpoint Assay (purified): Fab'2 stood at 529 ng/µL, the Enzyme Activity Endpoint Assay (purified): Fc turned out to be 398 ng/µL, the Enzyme Activity Endpoint Assay (purified): IgG came out at 446 ng/µL and the Enzyme Activity Endpoint Assay (purified): scIgG came to 0 ng/µL.

On to B7, for which the Enzyme Activity Endpoint Assay (purified): Fab'2 was 955 ng/µL, the Enzyme Activity Endpoint Assay (purified): Fc was determined as 443 ng/µL, the Enzyme Activity Endpoint Assay (purified): IgG was found to be 0 ng/µL and the Enzyme Activity Endpoint Assay (purified): scIgG was determined as 0 ng/µL.

B8 returned an Enzyme Activity Endpoint Assay (purified): Fab'2 of 1080 ng/µL, an Enzyme Activity Endpoint Assay (purified): Fc of 482 ng/µL, an Enzyme Activity Endpoint Assay (purified): IgG of 0 ng/µL and an Enzyme Activity Endpoint Assay (purified): scIgG of 0 ng/µL.

Protein B9 returned an Enzyme Activity Endpoint Assay (purified): Fab'2 of 711 ng/µL, an Enzyme Activity Endpoint Assay (purified): Fc of 320 ng/µL, an Enzyme Activity Endpoint Assay (purified): IgG of 0 ng/µL and an Enzyme Activity Endpoint Assay (purified): scIgG of 0 ng/µL.
